Test results published in patent publication US20090149339A1 (published 2009).
Ends that are not written are not given here. * marks the point of attachment. Biotin = O=C1N[C@H]2[C@H](CS[C@H]2CCCCC(=O)*)N1

Biological target: GST-PSD95 PDZ domain fusion protein (human post-synaptic density protein 95 AA387-724; PDZ domains 1-3 of 3) (human, UniProt P08515 1-218 = GST)
Test: A assay

GST-PSD95 PDZ domain fusion protein (human post-synaptic density protein 95 AA387-724; PDZ domains 1-3 of 3), sequence (P08515 1-218, tags or fused parts left off): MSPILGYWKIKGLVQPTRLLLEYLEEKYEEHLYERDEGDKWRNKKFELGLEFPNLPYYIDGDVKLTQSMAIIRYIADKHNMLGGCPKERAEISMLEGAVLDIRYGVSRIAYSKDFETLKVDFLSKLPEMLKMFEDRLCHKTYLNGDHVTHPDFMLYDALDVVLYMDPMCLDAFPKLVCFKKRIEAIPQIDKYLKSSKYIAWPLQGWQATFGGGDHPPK

Binder	binding result
Biotin-ISKATPALPTVSISSSAEV (also called AA1L-R) [CLASP-1 C-terminal PL peptide AA1L, biotinylated]	binds
Biotin-SVFSIPTLWSPWPPSSSSQL (also called CD3-eta) [CD3n C-terminal PL peptide AA4L, biotinylated]	binds

Biological target: GST-MPP1 PDZ domain fusion protein (55 Kd erythrocyte membrane protein AA101-186; PDZ domain 1 of 1) (UniProt P08515 1-218 = GST)
Test: A/G assays

GST-MPP1 PDZ domain fusion protein (55 Kd erythrocyte membrane protein AA101-186; PDZ domain 1 of 1), sequence (P08515 1-218, tags or fused parts left off): as the sequence (P08515 1-218, tags or fused parts left off) above

Binder	binding result
Biotin-ISKATPALPTVSISSSAEV (also called AA1L-R) [CLASP-1 C-terminal PL peptide AA1L, biotinylated]	no binding
Biotin-SVFSIPTLWSPWPPSSSSQL (also called CD3-eta) [CD3n C-terminal PL peptide AA4L, biotinylated]	no binding

Biological target: T1, GST-TAX40 PDZ domain fusion protein (human tax interaction protein 40 AA35-137; PDZ domain 1 of 1) (human, UniProt P08515 1-218 = GST)
T1 construct: also called TX 40
Test: A/G assays

T1 sequence (P08515 1-218, tags or fused parts left off): as the sequence (P08515 1-218, tags or fused parts left off) above

Binder	binding result
Biotin-ISKATPALPTVSISSSAEV (also called AA1L-R) [CLASP-1 C-terminal PL peptide AA1L, biotinylated]	no binding
Biotin-SVFSIPTLWSPWPPSSSSQL (also called CD3-eta) [CD3n C-terminal PL peptide AA4L, biotinylated]	no binding

Biological target: T2, GST-TAX2 PDZ domain fusion protein (human tax interaction protein 2 AA54-140; PDZ domain 1 of 1) (human, UniProt P08515 1-218 = GST)
T2 construct: also called TX 2
Test: A/G assays

T2 sequence (P08515 1-218, tags or fused parts left off): as the sequence (P08515 1-218, tags or fused parts left off) above

Binder	binding result
Biotin-ISKATPALPTVSISSSAEV (also called AA1L-R) [CLASP-1 C-terminal PL peptide AA1L, biotinylated]	no binding
Biotin-SVFSIPTLWSPWPPSSSSQL (also called CD3-eta) [CD3n C-terminal PL peptide AA4L, biotinylated]	no binding

Biological target: GST-AF6 PDZ domain fusion protein (af-6 protein AA985-1077; PDZ domain 1 of 1) (UniProt P08515 1-218 = GST)
Test: A/G assays

GST-AF6 PDZ domain fusion protein (af-6 protein AA985-1077; PDZ domain 1 of 1), sequence (P08515 1-218, tags or fused parts left off): as the sequence (P08515 1-218, tags or fused parts left off) above

Binder	binding result
Biotin-ISKATPALPTVSISSSAEV (also called AA1L-R) [CLASP-1 C-terminal PL peptide AA1L, biotinylated]	no binding
Biotin-SVFSIPTLWSPWPPSSSSQL (also called CD3-eta) [CD3n C-terminal PL peptide AA4L, biotinylated]	no binding

Biological target: T3, GST-CASK PDZ domain fusion protein (CASK AA495-584; PDZ domain 1 of 1) (mouse, UniProt P08515 1-218 = GST)
T3 construct: also called mCASK
Test: A/G assays

T3 sequence (P08515 1-218, tags or fused parts left off): as the sequence (P08515 1-218, tags or fused parts left off) above

Binder	binding result
Biotin-ISKATPALPTVSISSSAEV (also called AA1L-R) [CLASP-1 C-terminal PL peptide AA1L, biotinylated]	no binding
Biotin-SVFSIPTLWSPWPPSSSSQL (also called CD3-eta) [CD3n C-terminal PL peptide AA4L, biotinylated]	no binding

Biological target: GST-PTN-4 PDZ domain fusion protein (protein-tyrosine phosphatase meg1 AA774-862; PDZ domain 1 of 1) (UniProt P08515 1-218 = GST)
Test: A/G assays

GST-PTN-4 PDZ domain fusion protein (protein-tyrosine phosphatase meg1 AA774-862; PDZ domain 1 of 1), sequence (P08515 1-218, tags or fused parts left off): as the sequence (P08515 1-218, tags or fused parts left off) above

Binder	binding result
Biotin-ISKATPALPTVSISSSAEV (also called AA1L-R) [CLASP-1 C-terminal PL peptide AA1L, biotinylated]	no binding
Biotin-SVFSIPTLWSPWPPSSSSQL (also called CD3-eta) [CD3n C-terminal PL peptide AA4L, biotinylated]	no binding

Biological target: T4, GST-TAX33 PDZ domain fusion protein (tax interaction protein 33 AA73-162; PDZ domain 1 of 1) (UniProt P08515 1-218 = GST)
T4 construct: also called TX33
Test: A/G assays

T4 sequence (P08515 1-218, tags or fused parts left off): as the sequence (P08515 1-218, tags or fused parts left off) above

Binder	binding result
Biotin-ISKATPALPTVSISSSAEV (also called AA1L-R) [CLASP-1 C-terminal PL peptide AA1L, biotinylated]	no binding
Biotin-SVFSIPTLWSPWPPSSSSQL (also called CD3-eta) [CD3n C-terminal PL peptide AA4L, biotinylated]	no binding

Biological target: T5, GST-KIAA0316 PDZ domain fusion protein (KIAA0316 AA197-284; PDZ domain 1 of 1) (UniProt P08515 1-218 = GST)
T5 construct: also called K316
Test: A/G assays

Binder	binding result
Biotin-ISKATPALPTVSISSSAEV (also called AA1L-R) [CLASP-1 C-terminal PL peptide AA1L, biotinylated]	no binding
Biotin-SVFSIPTLWSPWPPSSSSQL (also called CD3-eta) [CD3n C-terminal PL peptide AA4L, biotinylated]	no binding

Biological target: GST-MINT3 PDZ domain fusion protein (human MINT3 AA11-52; PDZ domain 1 of 1) (human, UniProt P08515 1-218 = GST)
Test: A/G assays

GST-MINT3 PDZ domain fusion protein (human MINT3 AA11-52; PDZ domain 1 of 1), sequence (P08515 1-218, tags or fused parts left off): as the sequence (P08515 1-218, tags or fused parts left off) above

Binder	binding result
Biotin-ISKATPALPTVSISSSAEV (also called AA1L-R) [CLASP-1 C-terminal PL peptide AA1L, biotinylated]	no binding
Biotin-SVFSIPTLWSPWPPSSSSQL (also called CD3-eta) [CD3n C-terminal PL peptide AA4L, biotinylated]	no binding

Biological target: T6, GST-MPP2 PDZ domain fusion protein (maguk p55 subfamily member 2 (DLG2) AA185-273; PDZ domain 1 of 1) (UniProt P08515 1-218 = GST)
T6 construct: also called MMP2
Test: A/G assays

T6 sequence (P08515 1-218, tags or fused parts left off): as the sequence (P08515 1-218, tags or fused parts left off) above

Binder	binding result
Biotin-ISKATPALPTVSISSSAEV (also called AA1L-R) [CLASP-1 C-terminal PL peptide AA1L, biotinylated]	no binding
Biotin-SVFSIPTLWSPWPPSSSSQL (also called CD3-eta) [CD3n C-terminal PL peptide AA4L, biotinylated]	no binding

Biological target: T7, GST-KIAA0303 PDZ domain fusion protein (KIAA0303 AA652-742; PDZ domain 1 of 1) (UniProt P08515 1-218 = GST)
T7 construct: also called K303
Test: A/G assays

T7 sequence (P08515 1-218, tags or fused parts left off): as the sequence (P08515 1-218, tags or fused parts left off) above

Binder	binding result
Biotin-ISKATPALPTVSISSSAEV (also called AA1L-R) [CLASP-1 C-terminal PL peptide AA1L, biotinylated]	no binding
Biotin-SVFSIPTLWSPWPPSSSSQL (also called CD3-eta) [CD3n C-terminal PL peptide AA4L, biotinylated]	no binding

Biological target: GST-prIL16 PDZ domain fusion protein (putative interleukin 16 precursor AA170-383; PDZ domains 1-2 of 2) (UniProt P08515 1-218 = GST)
Test: A/G assays

Binder	binding result
Biotin-ISKATPALPTVSISSSAEV (also called AA1L-R) [CLASP-1 C-terminal PL peptide AA1L, biotinylated]	no binding
Biotin-SVFSIPTLWSPWPPSSSSQL (also called CD3-eta) [CD3n C-terminal PL peptide AA4L, biotinylated]	no binding

Biological target: T8, GST-CBP PDZ domain fusion protein (Cytohesin binding protein HE AA85-175; PDZ domain 1 of 1) (UniProt P08515 1-218 = GST)
T8 construct: also called Prot
Test: A/G assays

T8 sequence (P08515 1-218, tags or fused parts left off): as the sequence (P08515 1-218, tags or fused parts left off) above

Binder	binding result
Biotin-ISKATPALPTVSISSSAEV (also called AA1L-R) [CLASP-1 C-terminal PL peptide AA1L, biotinylated]	no binding
Biotin-SVFSIPTLWSPWPPSSSSQL (also called CD3-eta) [CD3n C-terminal PL peptide AA4L, biotinylated]	no binding

Biological target: T9, GST-41.8 kD PDZ domain fusion protein (hypothetical 41.8 kD protein AA4-85; PDZ domain 1 of 1) (UniProt P08515 1-218 = GST)
T9 construct: also called hypoth
Test: A/G assays

T9 sequence (P08515 1-218, tags or fused parts left off): as the sequence (P08515 1-218, tags or fused parts left off) above

Binder	binding result
Biotin-ISKATPALPTVSISSSAEV (also called AA1L-R) [CLASP-1 C-terminal PL peptide AA1L, biotinylated]	no binding

Biological target: T10, GST-TAX43 PDZ domain fusion protein (human tax interaction protein 43 AA15-85; PDZ domain 1 of 1) (human, UniProt P08515 1-218 = GST)
T10 construct: also called TX 43
Test: A/G assays

T10 sequence (P08515 1-218, tags or fused parts left off): as the sequence (P08515 1-218, tags or fused parts left off) above

Binder	binding result
Biotin-ISKATPALPTVSISSSAEV (also called AA1L-R) [CLASP-1 C-terminal PL peptide AA1L, biotinylated]	no binding
Biotin-SVFSIPTLWSPWPPSSSSQL (also called CD3-eta) [CD3n C-terminal PL peptide AA4L, biotinylated]	no binding

Biological target: T11, GST-RGS12 PDZ domain fusion protein (human regulator of G-protein signalling 12 AA35-103; PDZ domain 1 of 1) (human, UniProt P08515 1-218 = GST)
T11 construct: also called RSG12
Test: A/G assays

T11 sequence (P08515 1-218, tags or fused parts left off): as the sequence (P08515 1-218, tags or fused parts left off) above

Binder	binding result
Biotin-ISKATPALPTVSISSSAEV (also called AA1L-R) [CLASP-1 C-terminal PL peptide AA1L, biotinylated]	no binding
Biotin-SVFSIPTLWSPWPPSSSSQL (also called CD3-eta) [CD3n C-terminal PL peptide AA4L, biotinylated]	no binding

Biological target: GST-LIMK2 PDZ domain fusion protein (human LIM domain kinase 2 AA185-275; PDZ domain 1 of 1) (human, UniProt P08515 1-218 = GST)
Test: A/G assays

Binder	binding result
Biotin-ISKATPALPTVSISSSAEV (also called AA1L-R) [CLASP-1 C-terminal PL peptide AA1L, biotinylated]	no binding
Biotin-SVFSIPTLWSPWPPSSSSQL (also called CD3-eta) [CD3n C-terminal PL peptide AA4L, biotinylated]	no binding

Biological target: GST-LIM PDZ domain fusion protein (Human LIM protein AA29-112; PDZ domain 1 of 1) (human, UniProt P08515 1-218 = GST)
Test: A/G assays

GST-LIM PDZ domain fusion protein (Human LIM protein AA29-112; PDZ domain 1 of 1), sequence (P08515 1-218, tags or fused parts left off): as the sequence (P08515 1-218, tags or fused parts left off) above

Binder	binding result
Biotin-ISKATPALPTVSISSSAEV (also called AA1L-R) [CLASP-1 C-terminal PL peptide AA1L, biotinylated]	no binding
Biotin-SVFSIPTLWSPWPPSSSSQL (also called CD3-eta) [CD3n C-terminal PL peptide AA4L, biotinylated]	no binding

Biological target: T12, GST-SYN1a PDZ domain fusion protein (alpha1-syntrophin AA96-189; PDZ domain 1 of 1) (UniProt P08515 1-218 = GST)
T12 construct: also called SYN 1 alpha; SYNTR 1 alpha
Test: A/G assays

T12 sequence (P08515 1-218, tags or fused parts left off): as the sequence (P08515 1-218, tags or fused parts left off) above

Binder	binding result
Biotin-ISKATPALPTVSISSSAEV (also called AA1L-R) [CLASP-1 C-terminal PL peptide AA1L, biotinylated]	no binding
Biotin-SVFSIPTLWSPWPPSSSSQL (also called CD3-eta) [CD3n C-terminal PL peptide AA4L, biotinylated]	no binding

Biological target: GST-TIAM1 PDZ domain fusion protein (T-lymphoma invasion and metastasis inducing protein 1 AA1001-1088); PDZ 1 … (UniProt P08515 1-218 = GST)
Test: A/G assays

Binder	binding result
Biotin-ISKATPALPTVSISSSAEV (also called AA1L-R) [CLASP-1 C-terminal PL peptide AA1L, biotinylated]	no binding
Biotin-SVFSIPTLWSPWPPSSSSQL (also called CD3-eta) [CD3n C-terminal PL peptide AA4L, biotinylated]	no binding

Biological target: T13, GST-KIAA0559 PDZ domain fusion protein (KIAA0559 AA766-870; PDZ1 of 1) (UniProt P08515 1-218 = GST)
T13 construct: also called K559
Test: A/G assays

T13 sequence (P08515 1-218, tags or fused parts left off): as the sequence (P08515 1-218, tags or fused parts left off) above

Binder	binding result
Biotin-ISKATPALPTVSISSSAEV (also called AA1L-R) [CLASP-1 C-terminal PL peptide AA1L, biotinylated]	no binding
Biotin-SVFSIPTLWSPWPPSSSSQL (also called CD3-eta) [CD3n C-terminal PL peptide AA4L, biotinylated]	no binding

Biological target: T14, GST-NeDLG PDZ domain fusion protein (presynaptic protein sao102, neuroendocrine-dlg; PDZ domains 1-2 of 3) (UniProt P08515 1-218 = GST)
T14 construct: also called NeDLG1
Test: A/G assays

T14 sequence (P08515 1-218, tags or fused parts left off): as the sequence (P08515 1-218, tags or fused parts left off) above

Binder	binding result
Biotin-SVFSIPTLWSPWPPSSSSQL (also called CD3-eta) [CD3n C-terminal PL peptide AA4L, biotinylated]	no binding

Biological target: GST-NOS1 PDZ domain fusion protein (human neuronal nitric oxide synthase; PDZ domain 1 of 1) (human, UniProt P08515 1-218 = GST)
Test: A/G assays

GST-NOS1 PDZ domain fusion protein (human neuronal nitric oxide synthase; PDZ domain 1 of 1), sequence (P08515 1-218, tags or fused parts left off): as the sequence (P08515 1-218, tags or fused parts left off) above

Binder	binding result
Biotin-ISKATPALPTVSISSSAEV (also called AA1L-R) [CLASP-1 C-terminal PL peptide AA1L, biotinylated]	no binding
Biotin-SVFSIPTLWSPWPPSSSSQL (also called CD3-eta) [CD3n C-terminal PL peptide AA4L, biotinylated]	no binding

Biological target: GST-DVL1 PDZ domain fusion protein (human dishevelled segment polarity protein homolog AA248-340); PDZ domain … (human, UniProt P08515 1-218 = GST)
Test: A/G assays

GST-DVL1 PDZ domain fusion protein (human dishevelled segment polarity protein homolog AA248-340); PDZ domain …, sequence (P08515 1-218, tags or fused parts left off): as the sequence (P08515 1-218, tags or fused parts left off) above

Binder	binding result
Biotin-ISKATPALPTVSISSSAEV (also called AA1L-R) [CLASP-1 C-terminal PL peptide AA1L, biotinylated]	no binding
Biotin-SVFSIPTLWSPWPPSSSSQL (also called CD3-eta) [CD3n C-terminal PL peptide AA4L, biotinylated]	no binding

Biological target: T9, GST-41.8 kD PDZ domain fusion protein …
Test: A and G assays

Binder	binding result
Biotin-SVFSIPTLWSPWPPSSSSQL (also called CD3-eta) [CD3n C-terminal PL peptide AA4L, biotinylated]	binds

Biological target: T14, GST-NeDLG PDZ domain fusion protein …
Test: G assay

Binder	binding result
Biotin-ISKATPALPTVSISSSAEV (also called AA1L-R) [CLASP-1 C-terminal PL peptide AA1L, biotinylated]	binds
